# Source: US20260166128A1, “HUMAN AMYLIN ANALOG, AND DERIVATIVE THEREOF AND USE THEREOF” (priority 2022, published 2026)
# Numbered stars: 1 amine (or outer) side, 2 acyl side, 3 side chain; on linkers, the order of the positions; unused ones are H or OH. Bridge positions count the residues as written; N and C are the ends. Square brackets hold non-standard residues; d marks the D form. Side chains are listed from the residue outwards. Peptide text beside a SMILES is read from it. * marks the point of attachment. C20 diacid = O=C(O)CCCCCCCCCCCCCCCCCCC(=O)*; C18 diacid = O=C(O)CCCCCCCCCCCCCCCCC(=O)*; C16 diacid = O=C(O)CCCCCCCCCCCCCCC(=O)*; γGlu = O=C(O)[C@H](CCC(=O)[*:2])N[*:1]; C14 diacid = O=C(O)CCCCCCCCCCCCC(=O)*; Hyp = O=C(O)[C@@H]1C[C@@H](O)CN1; Orn = NCCC[C@H](N)C(=O)O; AEEA = NCCOCCOCC(=O)O; Inp = O=C(O)C1CCNCC1
# Tests used:
# human amylin receptor = target: T1, human amylin receptor (Homo sapiens, UniProt O60896+P30988); assay: Luciferase assay of amylin derivatives in amylin receptor/CRE-luc CHO cell line; format: cell-based; details: CHO-K1/Ga15/AMY3 CRE-luc cells, 24 hours incubation, F12 medium containing 10% FBS; read-out: EC50
# T1 construct: host or cells: CHO-K1/Ga15/AMY3 cells, further stably transfected with a CRE-luciferase plasmid
# T1 sequence (P30988 25-474): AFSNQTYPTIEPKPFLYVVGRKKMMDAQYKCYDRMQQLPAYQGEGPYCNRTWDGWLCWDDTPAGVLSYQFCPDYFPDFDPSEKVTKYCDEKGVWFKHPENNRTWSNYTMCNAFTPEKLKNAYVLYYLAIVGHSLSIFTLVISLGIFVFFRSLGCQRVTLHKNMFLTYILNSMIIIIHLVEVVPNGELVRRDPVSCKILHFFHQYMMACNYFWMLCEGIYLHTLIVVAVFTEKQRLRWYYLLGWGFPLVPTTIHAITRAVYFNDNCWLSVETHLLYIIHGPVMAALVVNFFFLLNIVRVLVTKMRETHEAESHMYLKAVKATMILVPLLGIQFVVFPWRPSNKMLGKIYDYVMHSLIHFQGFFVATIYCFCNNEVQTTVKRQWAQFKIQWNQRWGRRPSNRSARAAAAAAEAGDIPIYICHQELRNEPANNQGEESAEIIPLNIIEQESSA
# T1 sequence (O60896 24-148 partner): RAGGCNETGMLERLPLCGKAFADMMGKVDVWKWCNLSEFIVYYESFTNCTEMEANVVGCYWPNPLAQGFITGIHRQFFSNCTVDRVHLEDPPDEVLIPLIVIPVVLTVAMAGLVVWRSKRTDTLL
# Protocol: The experiment was intended to detect the activity or efficacy of the amylin derivatives on a human amylin receptor in vitro by luciferase assay.
# 50 μL of growth medium (F12 medium containing 10% FBS) was added into each well of a white 96-well plate, and the stably transfected amylin/CRE-lue CHO cells were inoculated into the white 96-well plate at a density of about 20,000 cells/well for activity determination.
# [1] = Freeze-thaw stability of derivatives (freeze-thaw yield by liquid chromatography); format: physicochemical; details: for Dissolution property: appearance after dissolution at 0.2 mg/ml in 20 mM phosphate buffer solution (PB) (pH 7.0); for Freeze storage property: appearance after overnight storage at −20° C. and thawing to room temperature, 0.2 mg/ml in 20 mM PB (pH 7.0); for Freeze storage yield: concentration of polypeptide after freezing and thawing / concentration before, by liquid chromatography, −20° C. overnight
# Protocol: The freeze-dried powder of the polypeptide analog derivative prepared in Example 1 was mixed with a buffer solution according to a mass-volume ratio of 0.2 mg/ml, the polypeptide was dissolved with 20 mM phosphate buffer solution (PB) (pH 7.0), the sample was stored at −20° C. for overnight storage, and then the sample was taken out to be restored to room temperature for thawing. During the experiment, property changes of the polypeptide after dissolution and freezing and thawing were observed and recorded respectively, and concentrations of the polypeptide before and after the freezing and thawing were detected by the following liquid chromatography method: Materials and equipment: high-performance liquid chromatographic instrument (Agilent 1200), ultrapure water (18.2 MΩ self-manufactured ultrapure water), acetonitrile (HPLC grade), and trifluoroacetic acid (HPLC grade); and reversed-phase chromatographic column: […] A sample to be tested was centrifuged at 10,000 rpm and 4° C. for 3 minutes, and a supernatant was taken and added into a liquid-phase sample injection bottle. […] A freeze-thaw yield was calculated by the following formula: freeze-thaw yield=concentration of polypeptide after the freezing and thawing/concentration of polypeptide before the freezing and thawing.
Molecule,EC50 (human amylin receptor),Dissolution property [1],Freeze storage property [1],Freeze storage yield [1]
"PD151: KCNTATCATQRLADFLRHSSNNLKPILPPTNVGSNT-trans-Hyp-NH2; N-terminal, 1K-ϵ; γGlu + C16 diacid ({C16 diacid-γGlu}-K([γGlu-C16 diacid])CNTATCATQRLADFLRHSSNNLKPILPPTNVGSNT-{trans‑Hyp-NH2}; disulfide 2-7 (inferred))",–,Clear,Clear,101.88%
"PD150: KCNTATCATQRLADFLRHSSNNLKPILPPTNVGSNT-trans-Hyp-NH2; N-terminal, 1K-ϵ; γGlu + C14 diacid ({C14 diacid-γGlu}-K([γGlu-C14 diacid])CNTATCATQRLADFLRHSSNNLKPILPPTNVGSNT-{trans‑Hyp-NH2}; disulfide 2-7 (inferred))",–,Clear,Clear,103.74%
"PD152: KCNTATCATQRLADFLRHSSNNLKPILPPTNVGSNT-trans-Hyp-NH2; N-terminal, 1K-ϵ; γGlu + C18 diacid ({C18 diacid-γGlu}-K([γGlu-C18 diacid])CNTATCATQRLADFLRHSSNNLKPILPPTNVGSNT-{trans‑Hyp-NH2}; disulfide 2-7 (inferred))",–,Clear,Clear,97.96%

# Continued, in another order:
EC50 (human amylin receptor),Molecule,Dissolution property [1],Freeze storage property [1],Freeze storage yield [1]
0.011 nM,CC[C@H](C)[C@H](NC(=O)[C@H](CCCCNC(=O)CC[C@H](NC(=O)CCCCCCCCCCCCCCCCC(=O)O)C(=O)O)NC(=O)CNC(=O)[C@H](CC(C)C)NC(=O)[C@H](CC(N)=O)NC(=O)[C@H](CC(N)=O)NC(=O)[C@H](CO)NC(=O)[C@H](CO)NC(=O)[C@H](Cc1c[nH]cn1)NC(=O)[C@H](CCCNC(=N)N)NC(=O)[C@H](CC(C)C)NC(=O)[C@H](Cc1ccccc1)NC(=O)[C@H](CC(=O)O)NC(=O)[C@H](C)NC(=O)[C@H](CC(C)C)NC(=O)[C@H](CCCNC(=N)N)NC(=O)[C@H](CCC(N)=O)NC(=O)[C@@H](NC(=O)[C@H](C)NC(=O)[C@@H]1CSSC[C@H](NC(=O)[C@@H](N)CCCNC(=N)N)C(=O)N[C@@H](CC(N)=O)C(=O)N[C@@H]([C@@H](C)O)C(=O)N[C@@H](C)C(=O)N[C@@H]([C@@H](C)O)C(=O)N1)[C@@H](C)O)C(=O)N[C@@H](CC(C)C)C(=O)N1CCC[C@H]1C(=O)N1CCC[C@H]1C(=O)N[C@H](C(=O)N[C@@H](CC(N)=O)C(=O)N[C@H](C(=O)NCC(=O)N[C@@H](CO)C(=O)N[C@@H](CC(N)=O)C(=O)N[C@H](C(=O)N1C[C@H](O)C[C@H]1C(N)=O)[C@@H](C)O)C(C)C)[C@@H](C)O [PD104] (H-RCNTATCATQRLADFLRHSSNNLGK([γGlu-C18 diacid])ILPPTNVGSNT[Hyp]-NH2; disulfide 2-7),–,–,–
0.048 nM,CC[C@H](C)[C@H](NC(=O)[C@@H]1CCCN1C(=O)[C@H](CCCCNC(=O)CC[C@H](NC(=O)CCCCCCCCCCCCCCCCCCC(=O)O)C(=O)O)NC(=O)[C@H](CC(C)C)NC(=O)[C@H](CC(N)=O)NC(=O)[C@H](CC(N)=O)NC(=O)[C@H](CO)NC(=O)[C@H](CO)NC(=O)[C@H](Cc1c[nH]cn1)NC(=O)[C@H](CCCNC(=N)N)NC(=O)[C@H](CC(C)C)NC(=O)[C@H](Cc1ccccc1)NC(=O)[C@H](CC(=O)O)NC(=O)[C@H](C)NC(=O)[C@H](CC(C)C)NC(=O)[C@H](CCCNC(=N)N)NC(=O)[C@H](CCC(N)=O)NC(=O)[C@@H](NC(=O)[C@H](C)NC(=O)[C@@H]1CSSC[C@H](NC(=O)[C@@H](N)CCCN)C(=O)N[C@@H](CC(N)=O)C(=O)N[C@@H]([C@@H](C)O)C(=O)N[C@@H](C)C(=O)N[C@@H]([C@@H](C)O)C(=O)N1)[C@@H](C)O)C(=O)N[C@@H](CC(C)C)C(=O)N1CCC[C@H]1C(=O)N1CCC[C@H]1C(=O)N[C@H](C(=O)N[C@@H](CC(N)=O)C(=O)N[C@H](C(=O)NCC(=O)N[C@@H](CO)C(=O)N[C@@H](CC(N)=O)C(=O)N[C@H](C(=O)N1C[C@H](O)C[C@H]1C(N)=O)[C@@H](C)O)C(C)C)[C@@H](C)O [PD075] (H-[Orn]CNTATCATQRLADFLRHSSNNLK([γGlu-C20 diacid])PILPPTNVGSNT[Hyp]-NH2; disulfide 2-7),–,–,–
0.017 nM,CC[C@H](C)[C@H](NC(=O)[C@@H]1CCCN1C(=O)[C@H](CCCCN)NC(=O)[C@H](CC(C)C)NC(=O)[C@H](CC(N)=O)NC(=O)[C@H](CC(N)=O)NC(=O)[C@H](CO)NC(=O)[C@H](CO)NC(=O)[C@H](Cc1c[nH]cn1)NC(=O)[C@H](CCCNC(=N)N)NC(=O)[C@H](CC(C)C)NC(=O)[C@H](Cc1ccccc1)NC(=O)[C@H](CC(=O)O)NC(=O)[C@H](C)NC(=O)[C@H](CC(C)C)NC(=O)[C@H](CCCNC(=N)N)NC(=O)[C@H](CCC(N)=O)NC(=O)[C@@H](NC(=O)[C@H](C)NC(=O)[C@@H]1CSSC[C@H](NC(=O)[C@H](CCCCN)NC(=O)COCCOCCNC(=O)COCCOCCNC(=O)C2CCN(C(=O)CCCCCCCCCCCCCCCCCCC(=O)O)CC2)C(=O)N[C@@H](CC(N)=O)C(=O)N[C@@H]([C@@H](C)O)C(=O)N[C@@H](C)C(=O)N[C@@H]([C@@H](C)O)C(=O)N1)[C@@H](C)O)C(=O)N[C@@H](CC(C)C)C(=O)N1CCC[C@H]1C(=O)N1CCC[C@H]1C(=O)N[C@H](C(=O)N[C@@H](CC(N)=O)C(=O)N[C@H](C(=O)NCC(=O)N[C@@H](CO)C(=O)N[C@@H](CC(N)=O)C(=O)N[C@H](C(=O)N1C[C@H](O)C[C@H]1C(N)=O)[C@@H](C)O)C(C)C)[C@@H](C)O [PD179] ({C20 diacid-Inp-AEEA-AEEA}-KCNTATCATQRLADFLRHSSNNLKPILPPTNVGSNT[Hyp]-NH2; disulfide 2-7),–,–,–
0.025 nM,CC[C@H](C)[C@H](NC(=O)[C@@H]1CCCN1C(=O)[C@H](CCCCN)NC(=O)[C@H](CC(C)C)NC(=O)[C@H](CC(N)=O)NC(=O)[C@H](CC(N)=O)NC(=O)[C@H](CO)NC(=O)[C@H](CO)NC(=O)[C@H](Cc1c[nH]cn1)NC(=O)[C@H](CCCNC(=N)N)NC(=O)[C@H](CC(C)C)NC(=O)[C@H](Cc1ccccc1)NC(=O)[C@H](CC(=O)O)NC(=O)[C@H](C)NC(=O)[C@H](CC(C)C)NC(=O)[C@H](CCCNC(=N)N)NC(=O)[C@H](CCC(N)=O)NC(=O)[C@@H](NC(=O)[C@H](C)NC(=O)[C@@H]1CSSC[C@H](NC(=O)[C@H](CCCCN)NC(=O)CC[C@H](NC(=O)COCCOCCNC(=O)COCCOCCNC(=O)CCCCCCCCCCCCCCCCCCC(=O)O)C(=O)O)C(=O)N[C@@H](CC(N)=O)C(=O)N[C@@H]([C@@H](C)O)C(=O)N[C@@H](C)C(=O)N[C@@H]([C@@H](C)O)C(=O)N1)[C@@H](C)O)C(=O)N[C@@H](CC(C)C)C(=O)N1CCC[C@H]1C(=O)N1CCC[C@H]1C(=O)N[C@H](C(=O)N[C@@H](CC(N)=O)C(=O)N[C@H](C(=O)NCC(=O)N[C@@H](CO)C(=O)N[C@@H](CC(N)=O)C(=O)N[C@H](C(=O)N1CCC[C@H]1C(N)=O)[C@@H](C)O)C(C)C)[C@@H](C)O [PD188] ({C20 diacid-AEEA-AEEA-γGlu}-KCNTATCATQRLADFLRHSSNNLKPILPPTNVGSNTP-NH2; disulfide 2-7 (inferred)),–,–,–
0.016 nM,CC[C@H](C)[C@H](NC(=O)[C@@H]1CCCN1C(=O)CNC(=O)[C@H](CC(C)C)NC(=O)[C@H](CC(N)=O)NC(=O)[C@H](CCCCNC(=O)CC[C@H](NC(=O)CCCCCCCCCCCCCCCCC(=O)O)C(=O)O)NC(=O)[C@H](CO)NC(=O)[C@H](CO)NC(=O)[C@H](Cc1c[nH]cn1)NC(=O)[C@H](CCCNC(=N)N)NC(=O)[C@H](CC(C)C)NC(=O)[C@H](Cc1ccccc1)NC(=O)[C@H](CC(=O)O)NC(=O)[C@H](C)NC(=O)[C@H](CC(C)C)NC(=O)[C@H](CCCNC(=N)N)NC(=O)[C@H](CCC(N)=O)NC(=O)[C@@H](NC(=O)[C@H](C)NC(=O)[C@@H]1CSSC[C@H](NC(=O)[C@@H](N)CCCNC(=N)N)C(=O)N[C@@H](CC(N)=O)C(=O)N[C@@H]([C@@H](C)O)C(=O)N[C@@H](C)C(=O)N[C@@H]([C@@H](C)O)C(=O)N1)[C@@H](C)O)C(=O)N[C@@H](CC(C)C)C(=O)N1CCC[C@H]1C(=O)N1CCC[C@H]1C(=O)N[C@H](C(=O)N[C@@H](CC(N)=O)C(=O)N[C@H](C(=O)NCC(=O)N[C@@H](CO)C(=O)N[C@@H](CC(N)=O)C(=O)N[C@H](C(=O)N1C[C@H](O)C[C@H]1C(N)=O)[C@@H](C)O)C(C)C)[C@@H](C)O [PD092] (H-RCNTATCATQRLADFLRHSSK([γGlu-C18 diacid])NLGPILPPTNVGSNT[Hyp]-NH2; disulfide 2-7),–,–,–
